Source: patent publication KR20180081029A (dated 2018)

Tests used:
[1] = target: T1, CD86 expressed on the cell surface of Raji B cells (human, UniProt P42081 24-329); test: FACS on Raji B cells (figure legend)
T1 construct: whole, on cells; Raji cells carry both CD80 and CD86; also called B7.2
T1 sequence (looked up): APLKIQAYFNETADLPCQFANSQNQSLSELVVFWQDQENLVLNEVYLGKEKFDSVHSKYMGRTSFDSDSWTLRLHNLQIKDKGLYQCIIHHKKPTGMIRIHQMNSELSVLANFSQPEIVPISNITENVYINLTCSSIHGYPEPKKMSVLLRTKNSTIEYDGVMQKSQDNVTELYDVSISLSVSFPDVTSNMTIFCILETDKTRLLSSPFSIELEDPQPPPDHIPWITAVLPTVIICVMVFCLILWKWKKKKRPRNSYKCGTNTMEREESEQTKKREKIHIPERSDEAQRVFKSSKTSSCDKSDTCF

[2] = target: T2, CD86 antigen (R&D systems, Cat. #. 141-B2-100) (human, UniProt P42081 26-245); test: phage bio-panning of a Fab library on the bought antigen, binding checked by Fab ELISA (anti-HA-HRP)
T2 construct: Bought reagent
T2 sequence (looked up): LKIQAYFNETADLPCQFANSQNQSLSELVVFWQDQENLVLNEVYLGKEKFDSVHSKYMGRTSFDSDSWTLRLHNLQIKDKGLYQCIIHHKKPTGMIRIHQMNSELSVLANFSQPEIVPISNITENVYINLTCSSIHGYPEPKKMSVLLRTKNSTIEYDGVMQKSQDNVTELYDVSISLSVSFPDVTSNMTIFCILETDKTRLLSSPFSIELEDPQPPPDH

B1: 3A2 (CD86) human antibody, IgG form (antibody, V domains shown)
VH: EVQLLESGGGLVQPGGSLRLSCAASGFTFSYYSMSWVRQAPGKGLEWVSSISYGPGYTYYADSVKGRFTISRDNSKNTLYLQMNSLRAEDTAVYYCARYYYYGYYYGYYGAFDYWGQGTLVTVSS
VL: EIVLTQSPGTLSLSPGERATLSCRASQSVSSSYLAWYQQKPGQAPRLLIYGASSRATGIPDRFSGSGSGTDFTLTISRLEPEDFAVYYCQQGYYSNSTFGQGTKVEIK
notes: Converted to IgG, expressed in 293F cells
B1: binds [1].

B2: 3A2 (CD86), Fab clone selected from the Rz human antibody library (Fab, V domains shown)
VH: B1 VH
VL: B1 VL
notes: Fab (on phage in the panning, soluble from E. coli in the ELISA, detected with anti-HA-HRP, so it carries an HA tag)
B2: binds [2].
